In patent US20260256923, “NEW RECRUITMENT ELEMENT OF UBIQUITIN LIGASE AND USE THEREOF” (SHENZHEN LINGGENE BIOTECH CO., LTD., published 2026):

Key:
[1] = target: Nucleolin (NCL) (Homo sapiens, UniProt P19338 P19338:2-710); assay: pulldown; 400 nM oligo, with MDM2, 4 C; details: tags: ACROBiosystems NUL-H5253, label: 5'-biotin
Description: (§1) 6 μg/mL recombinant human NCL and 6 μg/mL recombinant human MDM2 were mixed well and incubated at 4° C. for 7 h. Subsequently, 400 nM CRO, AS1411, or iSN04 labeled by biotin at the 5′ end was added, and the mixture was incubated at 4° C. for 6 h. Streptavidin agarose gel beads (purchased from cytiva, Cat. No.: 17511301) were added, and the mixture was further incubated at 4° C. overnight. The gel beads were washed 4 times with a TBST buffer, and an SDS-PAGE protein loading buffer (purchased from Beyotime, Cat. No.: P0015) was added. The mixture was heated to 100° C. and held for 10 min. After centrifugation, the supernatant was collected. The pull-down product was then detected by western blot assay.

[2] = target: T1, MDM2 (Homo sapiens, UniProt Q00987 Q00987:1-491); assay: pulldown; NCL present; iSN04 blocks NCL-MDM2 interaction; details: tags: R&D Systems E3-202-050; label: 5'-biotin; weak G4 only with K+
Description: as §1

[3] = target: T1, MDM2; assay: pulldown; NCL present; details: tags: R&D Systems E3-202-050; label: 5'-biotin
Description: as §1

T1 sequence (Q00987 whole entry, one chain of several): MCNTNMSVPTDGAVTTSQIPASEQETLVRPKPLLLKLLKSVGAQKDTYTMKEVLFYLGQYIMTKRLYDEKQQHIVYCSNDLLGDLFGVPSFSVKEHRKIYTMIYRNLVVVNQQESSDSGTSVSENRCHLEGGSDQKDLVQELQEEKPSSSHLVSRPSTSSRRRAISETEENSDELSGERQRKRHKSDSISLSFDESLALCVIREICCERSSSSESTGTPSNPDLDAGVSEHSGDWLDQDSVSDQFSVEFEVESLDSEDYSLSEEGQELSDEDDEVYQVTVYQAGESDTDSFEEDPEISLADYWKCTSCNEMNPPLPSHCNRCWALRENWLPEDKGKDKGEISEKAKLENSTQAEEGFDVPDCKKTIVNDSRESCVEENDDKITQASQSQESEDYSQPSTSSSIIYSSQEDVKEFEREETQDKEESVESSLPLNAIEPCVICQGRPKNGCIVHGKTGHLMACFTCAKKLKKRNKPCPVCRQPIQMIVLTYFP
Chain of Nucleolin (NCL) (P19338 2-710, one chain of several): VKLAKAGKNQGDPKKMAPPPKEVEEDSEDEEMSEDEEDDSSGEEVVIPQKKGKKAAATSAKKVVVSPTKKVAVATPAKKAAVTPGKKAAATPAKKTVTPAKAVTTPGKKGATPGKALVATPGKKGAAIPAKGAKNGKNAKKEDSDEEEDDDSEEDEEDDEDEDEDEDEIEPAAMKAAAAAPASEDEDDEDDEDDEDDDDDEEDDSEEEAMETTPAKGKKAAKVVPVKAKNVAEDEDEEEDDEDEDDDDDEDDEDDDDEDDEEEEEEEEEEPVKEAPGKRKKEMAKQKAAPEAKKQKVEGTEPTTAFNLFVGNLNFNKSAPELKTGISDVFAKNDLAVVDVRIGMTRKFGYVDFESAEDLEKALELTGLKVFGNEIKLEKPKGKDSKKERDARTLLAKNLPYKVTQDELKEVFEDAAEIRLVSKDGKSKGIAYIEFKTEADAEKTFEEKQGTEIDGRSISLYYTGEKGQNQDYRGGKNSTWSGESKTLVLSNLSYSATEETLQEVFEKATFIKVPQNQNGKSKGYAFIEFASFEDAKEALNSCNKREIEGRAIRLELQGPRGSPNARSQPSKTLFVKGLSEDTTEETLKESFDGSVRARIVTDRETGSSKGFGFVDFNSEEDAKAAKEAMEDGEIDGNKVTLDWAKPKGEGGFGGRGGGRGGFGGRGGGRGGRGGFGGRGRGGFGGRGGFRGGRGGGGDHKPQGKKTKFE

## AGATTAGGGTGAGGGTGA (ssDNA) [iSN04]
[1]; weak G4 only with K+
  binding result: binds
[2]
  binding result: no binding

## CCTCCTCCTCCTTCTCCTCCTCCTCC (ssDNA) [CRO]
[3]
  binding result: no binding
[1]
  binding result: no binding
